Laboratory results from patent publication US20030129189A1, “Tumor necrosis factor-gamma” (priority 1994, published 2003).

T1: FLAG-tagged soluble TNF-gamma-beta (aa 72-251) (human, UniProt O95150 72-251)
T1 construct: also called FLAG-TL1β; FLAG-TNF-gamma-beta; not shown: The N-terminal FLAG tag (pFLAG-CMV-1 vector) and any vector linker
T1 sequence: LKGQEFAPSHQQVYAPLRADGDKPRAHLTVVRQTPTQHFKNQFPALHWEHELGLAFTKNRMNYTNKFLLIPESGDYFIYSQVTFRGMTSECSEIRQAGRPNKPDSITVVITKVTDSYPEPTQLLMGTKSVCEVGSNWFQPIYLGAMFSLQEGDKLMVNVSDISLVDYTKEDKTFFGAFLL

T2: non-tagged form of TR6 (UniProt O95407 30-300)
T2 construct: also called DcR3
T2 sequence (looked up): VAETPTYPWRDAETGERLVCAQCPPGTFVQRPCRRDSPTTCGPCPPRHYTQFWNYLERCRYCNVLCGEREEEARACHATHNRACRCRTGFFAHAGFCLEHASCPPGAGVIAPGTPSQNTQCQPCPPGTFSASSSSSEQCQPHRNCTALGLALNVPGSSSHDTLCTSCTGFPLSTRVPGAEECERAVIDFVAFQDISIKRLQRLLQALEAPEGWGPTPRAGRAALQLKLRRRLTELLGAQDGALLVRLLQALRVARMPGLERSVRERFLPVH

T3: Fc-fusion form of the extracellular domain of DR6 (UniProt O75509 42-349, limits assumed)
T3 construct: extracellular domain; not shown: Fc part of the fusion
T3 sequence (looked up): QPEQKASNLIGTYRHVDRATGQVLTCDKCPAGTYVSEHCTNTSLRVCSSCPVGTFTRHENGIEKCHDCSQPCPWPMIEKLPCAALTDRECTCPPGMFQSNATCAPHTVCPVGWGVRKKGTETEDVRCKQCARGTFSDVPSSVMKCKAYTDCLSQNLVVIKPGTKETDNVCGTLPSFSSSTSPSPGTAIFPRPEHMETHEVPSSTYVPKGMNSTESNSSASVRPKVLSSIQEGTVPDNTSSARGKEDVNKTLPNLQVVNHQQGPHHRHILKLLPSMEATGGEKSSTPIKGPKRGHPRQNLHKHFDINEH

T4: Fc-fusion form of the extracellular domain of OPG (UniProt O00300 22-401, limits assumed)
T4 construct: extracellular domain; not shown: Fc part of the fusion
T4 sequence (looked up): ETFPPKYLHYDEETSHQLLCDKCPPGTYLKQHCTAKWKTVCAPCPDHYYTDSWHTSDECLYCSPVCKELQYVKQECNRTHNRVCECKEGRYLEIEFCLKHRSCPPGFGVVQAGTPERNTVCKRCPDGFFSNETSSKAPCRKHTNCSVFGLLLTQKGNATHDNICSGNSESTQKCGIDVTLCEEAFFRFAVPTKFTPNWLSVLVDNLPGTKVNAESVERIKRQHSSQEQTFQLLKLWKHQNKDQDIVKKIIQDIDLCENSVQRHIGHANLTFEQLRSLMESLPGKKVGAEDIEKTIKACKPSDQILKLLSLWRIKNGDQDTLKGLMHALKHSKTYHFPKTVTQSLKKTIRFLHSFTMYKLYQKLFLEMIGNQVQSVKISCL

T5: recombinant, untagged TNF-gamma-beta protein (aa 72-251) (human, UniProt O95150 72-251)
T5 construct: they are put here; also called TL1β; non-tagged TNF-gamma-beta
T5 sequence: T1 sequence

B1: TACI-Fc (extracellular domain of human TACI, aa 1-159, fused to the Fc domain of human IgG1) (Fc fusion, UniProt O14836 1-159, looked up)
chain: MSGLGRSRRGGRSRVDQEERFPQGLWTGVAMRSCPEEQYWDPLLGTCMSCKTICNHQSQRTCAAFCRSLSCRKEQGKFYDHLLRDCISCASICGQHPKQCAYFCENKLRSPVNLPPELRRQRSGEVENNSDNSGRYQGLEHRGSEASPALPGLKLSADQ
notes: range 1-159; also called TAC1; not shown: Fc domain of human IgG1, fused in-frame to the C-terminus of the receptor part
B2: full length TNF-gamma-beta on the cell surface (HEK293F stable transfectants; transfected cells) (ligand)
chain: MAEDLGLSFGETASVEMLPEHGSCRPKARSSSARWALTCCLVLLPFLAGLTTYLLVSQLRAQGEACVQFQALKGQEFAPSHQQVYAPLRADGDKPRAHLTVVRQTPTQHFKNQFPALHWEHELGLAFTKNRMNYTNKFLLIPESGDYFIYSQVTFRGMTSECSEIRQAGRPNKPDSITVVITKVTDSYPEPTQLLMGTKSVCEVGSNWFQPIYLGAMFSLQEGDKLMVNVSDISLVDYTKEDKTFFGAFLL
notes: also called TNF-gamma-beta expressing cells
B3: soluble DR3: extracellular domain of DR3 locally produced by transfected MCA 38 cells (protein, UniProt Q93038 25-199, looked up)
extracellular domain: QGGTRSPRCDCAGDFHKKIGLFCCRGCPAGHYLKAPCTEPCGNSTCLVCPQDTFLAWENHHNSECARCQACDEQASQVALENCSAVADTRCGCKPGWFVECQVSQCVSSSPFYCQPCLDCGALHRHTRLLCSRRDTDCGTCLPGFYEHGDGCVSCPTSTLGSCPERCAAVCGWRQ
modifications: extracellular domain
notes: extracellular domain of DR3 locally produced by transfected MCA 38 cells
B4: BCMA-Fc (Fc fusion, human, UniProt Q02223 1-54, looked up)
chain: MLQMAGQCSQNEYFDSLLHACIPCQLRCSSNTPPLTCQRYCNASVTNSVKGTNA
notes: Control surface of the BIAcore analysis; not shown: Fc part of the fusion; not described for this receptor

What was measured:
[1] = molecular target: B2; test: flow cytometry on HEK293F cells expressing full length TNF-gamma-beta
Experimental: (§1) TR6 has been previously described as a decoy receptor (Pitti et al., Nature 396:699-703 (1998); Yu et al., J. Biol. Chem. 274:13733-6 (1999)) capable of competing with Fas and HveA for binding of FasL and LIGHT, respectively.
(§2) One million cells, in 0.1 ml of FACS buffer (PBS, 0.1% BSA, 0.1% NaN₃), were incubated with 0.1-1 microgram of protein or antibody at RT for 15 min. The cells were washed with 3 ml of FACS buffer, reacted with biotinylated primary antibody, and stained with PE-conjugated secondary antibody at RT for 15 min. Cells were then washed again, resuspended in 0.5 microgram/ml of propidium iodide, and live cells were gated and analyzed on a FACScan using the CellQuest software (BD Biosciences).

[2] = molecular target: T1, FLAG-tagged soluble TNF-gamma-beta (aa …); test: co-immunoprecipitation with protein A-Sepharose, anti-Flag M2 blot
Text: The beads were then precipitated and washed extensively with PBST buffer (PBS, 0.5% Triton X-100) before boiled in SDS-sample buffer. Proteins were resolved on 4-20% Tris-Glycine gels (NOVEX), transferred to nitrocellulose membranes, and blotted with anti-Flag M2 monoclonal antibody (1 microgram/ml, Sigma) andhorseradish peroxidase (HRP)-conjugated goat anti-mouse IgG antibody (0.5 microgram/ml).

[3] = molecular target: T2, non-tagged form of TR6; test: competition flow cytometry on HEK293F cells expressing TNF-gamma-beta; competitor of DR3-Fc
Experimental: as §1, §2

[4] = molecular target: T3, Fc-fusion form of the extracellular …; test: flow cytometry on HEK293F cells expressing full length TNF-gamma-beta
Experimental: as §1, §2

[5] = molecular target: T4, Fc-fusion form of the extracellular …; test: as above
Experimental: as §1, §2

[6] = system: MC-38 murine colon cancer; test: In vivo tumorigenicity assay, syngeneic MC-38 colon cancer; set-up: species or system C57BL6/6 mice; conditions: local production by transfected MCA 38 cells, 1×10^6 cells/mouse
Experimental: [The full-length TNF-gamma and extracellular domain of DR3 was cloned into pcDNA3 expression vector and transfected to MCA 38 cells, respectively. After selection and cloning, three clones from each constructs were picked for tumorigenicity study. MCA 38 cells (1×10^6 cells/mouse) expressing TNF-gamma or DR3 extracellular domain were injected into C57BL6/6 mice. The tumor size was assessed by measuring perpendicular diameters with a caliper and calculated by multiplying the measurements of diameters in two dimensions. Data are represented as the mean +/−SD of 6 mice in each group.] It is clear that most immune cells and cancer cells can express more than one TNF receptor (even more than one death receptor) and ligand superfamily member. […] Moreover, the expression of these ligands and receptors may differ at the level of individual cell types within tissues and the expression level on the same cell type may also differ.
The full length TNF-gamma and extracellular domain of DR3 was cloned into pcDNA3 expression vector (Invitrogen, Carlsbad, Calif.) and transfected to MCA 38 cells, respectively. […] Mice then were randomized and tumors were measured twice weekly. The tumor size was assessed by measuring perpendicular diameters with a caliper and calculated by multiplying the measurements of diameters in two dimensions. […]

[7] = molecular target: T5, recombinant, untagged TNF-gamma-beta …; test: BIAcore 3000, TNFR-Fc immobilised on CM5 chip, TNF-gamma-beta in flow
Experimental: TNFR-Fc were covalently immobilized to the BIAcore sensor chip (CM5 chip) via amine groups using N-ethyl-N′-(dimethylaminopropyl) carbodiimide/N-hydroxysuccinimide chemistry. […] The amount of bound protein was determined during washing of the flow cell with HBS buffer (10 mM HEPES, pH 7.4, 150 mM NaCl, 3.4 mM EDTA, 0.005% Surfactant P20). The flow cell surface was regenerated by displacing bound protein by washing with 20 microliters of 10 mM glycine-HCl, pH 2.3. For kinetic analysis, the on and off rates were determined using the kinetic evaluation program in BIAevaluation 3 software using a 1:1 binding model and the global analysis method.

Molecule: B1
binding result [1]: no binding | binding result [2]: no binding

Molecule: B2
binding result [3]: binds | binding result [4]: no binding | binding result [5]: no binding

Molecule: B3
tumor growth [6]: promotes tumor growth

Molecule: B4
binding result [7]: no binding (tested: 3-370 nM)
